For assay [1], the system named is CGH-1_248–420 binding to GST-EDC-3_230–566. Briefly: GST-pulldown competition, CGH-1_248–420 binding to GST-EDC-3_230–566. On the set-up: species or system C. elegans. Conditions: PBS, 2 h, same amount of CAR-1_184–268 and CGH-1_248–420 (50 μg). How it is done: To investigate whether CAR-1_184–268 can affect CGH-1_248–420 binding to EDC-3_230–566, approximate 100 μg GST-tagged EDC-3_230–566 was incubated with GST resin, followed by three times of wash in PBS. The resin was then incubated with 50 μg CGH-1_248–420 in the absence or presence of the same amount of CAR-1_184–268 for 2 h, followed by five times of PBS wash, and captured proteins were finally analyzed as described above.
To investigate whether C. elegans PATR-1 peptide will affect the CGH-1 binding to GST-tagged EDC-3_230–566 protein, approximate 100 μg GST-tagged EDC-3_230–566 was incubated with GST resin, followed by three times of wash in PBS. The resin was then incubated with 50 μg CGH-1_248–420 without PATR-1 peptide (0 μM) or with varied concentration of PATR-1 peptide (12.5, 25, or 50 μM) for 2 h, and was washed five times in PBS. The captured proteins in resin were finally heated and analyzed using 12% SDS-PAGE.

A further assay deals with T1, CGH-1_248-420^WT (Caenorhabditis elegans, UniProt Q95YF3).
T1 construct: the cDNA fragments encoding CGH-1 RecA2 (residues 248–420); made in house; host or cells: E. coli Gold (DE3)
T1 sequence (Q95YF3 248-420): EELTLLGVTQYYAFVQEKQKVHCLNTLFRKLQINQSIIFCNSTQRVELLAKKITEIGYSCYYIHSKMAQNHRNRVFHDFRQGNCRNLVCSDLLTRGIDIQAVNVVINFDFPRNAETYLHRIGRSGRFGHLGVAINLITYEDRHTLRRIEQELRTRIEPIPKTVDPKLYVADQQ
Briefly: ITC binding to CGH-1_248–420 WT. On the set-up: species or system C. elegans. To be noted: ITC, 20 °C, pH 7.5, 150 mM NaCl; CGH-1_248–420 WT. How it is done:
Expression plasmids regarding CGH-1 and CAR-1 were constructed as previously described. In brief, the cDNA fragments encoding CGH-1 RecA2 (residues 248–420), CAR-1 FDF-TFG (residues 184–268) were amplified by PCR from C. elegans genome library and cloned into the NdeI and XhoI site of a modified pET-28a (Novagen) vector (p28a), in which a thrombin protease cleavage site was removed.
CGH-1 protein expression and purification were performed described as in our most recent paper. In brief, proteins were expressed in E. coli Gold (DE3) strain (Novagen). […] Cells were resuspended in Buffer A (20 mM Tris–HCl, pH 7.5, 1 M NaCl), and then lysed using high pressure at 4 °C. Proteins were initially purified by Ni-chelating resin (Qiagen), and further purified by size exclusion chromatography (SEC) on a Superdex 75 column (GE healthcare) in Buffer A. The purified proteins were dialyzed into Buffer B (20 mM Tris–HCl, pH 7.5, 150 mM NaCl).
A peptide containing the C. elegans EDC-3 FDF fragment (residues 235–271) and PATR-1 fragment (residues 30–67) were synthesized from GL Biochem (Shanghai, China) Co., Ltd, respectively. Stock solutions of peptide were prepared in Buffer B described above, and were adjusted to pH 7.5 ± 0.02 for subsequent experiments.
ITC assays were performed as previously described. In brief, it was carried out on a MicroCal PEAQ-ITC (Malvern) at 20 °C with the following settings: reference power, 5 μcal/s; initial delay, 60 s; stir speed, 750 rpm; spacing time, 120 s. Proteins (or its mutants) and peptides were adjusted to 0.05 mM and 0.5 mM, respectively. Experiments were initialed by injection of 1 μl each of peptide into the sample cell (200 μl) filled with protein (or its mutants) solution, followed by 18 injections of 2 μl. The ITC data were fitted with a one-binding-site model using the Origin analysis software.

The next assay concerns CGH-1_248–420. Briefly: GST-pulldown of CGH-1_248–420 WT. In kind it is binding, C. elegans. To be noted: PBS, ~100 μg GST protein, ~50 μg CGH-1, 2 h, 12% SDS-PAGE. The method, then:
(§1) The cDNA encoding a fragment of C. elegans EDC-3 (residues 230–566) plus a C-terminal His6 tag was synthesized by Sangon Biotech (Shanghai, China) Co., Ltd. The DNA fragment was then cloned into a pGEX-4T-1 expression vector using restriction enzymes BamHI and XhoI, and finally confirmed by DNA sequencing.
(§2) To test if GST-tagged EDC-3 can pulldown CGH-1 protein, about 100 μg protein, GST alone or GST-EDC-3_230–566, was incubated with GST resin (GE Healthcare) in PBS for 1 h. The resin was then washed three times with the same buffer. Subsequently, the resin was incubated with ~ 50 μg recombinant CGH-1_248–420 protein or its 4A mutant in the same buffer for 2 h. The resin was then washed five times using the same buffer. The captured proteins in resin were finally heated and analyzed using 12% SDS-PAGE.

Assay [2] has as its system 4A mutant of CGH-1_248–420. Briefly: GST-pulldown of CGH-1_248–420 4A mutant. The assay is classed as binding, C. elegans. Conditions: PBS, ~100 μg GST protein, ~50 μg CGH-1 4A, 2 h, 12% SDS-PAGE. How it is done:
as §1, §2

Entries after “also recorded” stand apart in the source; their conditions may differ.

B1: CAR-1_184–268: recombinant CAR-1 FDF-TFG (residues 184–268) (protein)
chain: LKFESDFDFEKANEKFQEVLVDNLEKLNIEDKAEPEVEEKKDAAFYDKKTSFFDNISCESLEKAEGKTGRPDWKKERETNQETFG
modifications: left off: His tag (from the modified vector pET-28a), end not stated, state not stated
B1: the “effect on binding of CGH-1_248–420 to EDC-3_230–566” value in assay [1] is given as “little or no effect”. Besides, the “− TΔS” value with CGH-1_248-420^WT is 19.6 kcal/mol.

B2: GST-EDC-3_230–566: GST-tagged fragment of C. elegans EDC-3 (residues 230–566) plus a C-terminal His6 tag (protein)
chain: RNKNDLADPIDFDLDSDFDFAENLKLFEKDENDDQYYETVEKFKCSQNFAHYENIIDDENRVTSWTNLKARSELVKTGTTPQTSEKNNFRVTAVSFEKSIIGDPIPAISLNEKKEFLNECRVSLGEAVYDTIVADRIFQWVSEVQNSYGDAHGTVVLLASSANSVRSIRRLLTHFDKRRYNCHLFGKYPGEIFDHVNVVTDVKMLPREVPIICILSPVVNDDVECWLRAQSNGASSHYVCIENVPSVLEPSRCHLLQFGCATNGLRHAERKVQTINRGGITFEHLCQGKMHEETSSILVDSAIADLGSPSNWFDNTSSKFISTAFSTTFLVRLSQSN
modifications: left off: GST, end not stated, kept | His6, C-terminal, state not stated
notes: GST-tagged fragment of C. elegans EDC-3 (residues 230–566) plus a C-terminal His6 tag
With B2, in the assay with CGH-1_248–420, the “interaction with CGH-1_248–420” value was “can interact with CGH-1_248–420; also recorded: binds to CGH-1 RecA2 domain”. The “amount of CGH-1 4A bound compared with wild-type” value in assay [2] is on record as “less amount”.

Values taken from paper PMC8514580, “Insight into the interaction between the RNA helicase CGH-1 and EDC-3 and its implications” (Scientific Reports, 2021).
